Measurements from paper PMC3587828 (The Journal of Cell Biology, 2013).

Key:
[1] = target: recombinant Cdc42 (Q61L), GST-free (human, UniProt P60953 1-188, Q61L | C188S); assay: pull-down
MBP–Morg1 = target: T1, MBP–Morg1 (human, UniProt Q9BRX9 1-315); assay: pull-down
T1 sequence (looked up): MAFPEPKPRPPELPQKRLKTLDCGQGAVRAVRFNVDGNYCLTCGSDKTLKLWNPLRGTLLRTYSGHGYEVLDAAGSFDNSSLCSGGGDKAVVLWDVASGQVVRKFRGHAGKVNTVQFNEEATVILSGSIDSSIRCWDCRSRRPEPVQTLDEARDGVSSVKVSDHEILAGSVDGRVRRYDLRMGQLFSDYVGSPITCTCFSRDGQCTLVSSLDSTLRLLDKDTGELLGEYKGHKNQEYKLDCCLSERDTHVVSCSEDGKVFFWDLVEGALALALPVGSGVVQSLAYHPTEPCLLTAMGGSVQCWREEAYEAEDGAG

recombinant Cdc42 (Q61L), GST-free, sequence (P60953 1-188 Q61L/C188S): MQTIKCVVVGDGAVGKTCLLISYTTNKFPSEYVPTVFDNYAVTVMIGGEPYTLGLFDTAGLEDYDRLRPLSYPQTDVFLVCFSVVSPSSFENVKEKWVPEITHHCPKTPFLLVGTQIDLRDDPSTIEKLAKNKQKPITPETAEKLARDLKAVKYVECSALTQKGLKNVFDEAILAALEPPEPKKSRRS

binding result [1]: binds | binding result (MBP–Morg1): binds
B1: GST–Par6β (126–254) (domain or fragment, human, UniProt Q9BYG5 126-254, looked up)
chain: RKKPHIVISMPQDFRPVSSIIDVDILPETHRRVRLYKYGTEKPLGFYIRDGSSVRVTPHGLEKVPGIFISRLVPGGLAQSTGLLAVNDEVLEVNGIEVSGKSLDQVTDMMIANSRNLIITVRPANQRNN
